Experimental data published in the supplement of paper PMC7125110.
± gives the standard error. Variants at the floor of the assay were thinned out.

B1: glmS ribozyme (parent)
chain: AUAAAAGCGCCAGAACUACAGAAAUGUAGUUGACGAGGAGGAGGUUUAUCGAAUUUUCGGCGGAUGCCUCCAAA

Columns and labels:
Settings in all cases: with glucosamine-6-phosphate
[1] = variants of: B1; test: self-cleavage kobs at 40 uM GlcN6P; higher = faster cleavage; RNA array
Outline: (§1)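 Tiles bearing barcoded ribozyme variants, transcribed in situ by E. coli RNA polymerase on sequenced MiSeq chips, were imaged over ~14 h at 37 °C using a hybridised Cy3 probe. Glucosamine-6-phosphate was supplied at 40 μM to 10 mM in HEPES/KCl/Mg(OAc)2 buffer. kobs came from one- or two-exponential decay fits to normalised per-tile medians, and weighted Michaelis–Menten fits then provided kcat and KM.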

[2] = variants of: B1; test: self-cleavage kobs at 10000 uM GlcN6P; higher = faster cleavage; RNA array
Outline: as §1

[3] = variants of: B1; test: self-cleavage kobs at 160 uM GlcN6P; higher = faster cleavage; RNA array
Outline: as §1

[4] = variants of: B1; test: self-cleavage kobs at 2500 uM GlcN6P; higher = faster cleavage; RNA array
Outline: as §1

[5] = variants of: B1; test: self-cleavage kobs at 640 uM GlcN6P; higher = faster cleavage; RNA array
Outline: as §1

| Variant | self-cleavage kobs at 40 uM GlcN6P [1] [s⁻¹] | self-cleavage kobs at 10000 uM GlcN6P [2] [s⁻¹] | self-cleavage kobs at 160 uM GlcN6P [3] [s⁻¹] | self-cleavage kobs at 2500 uM GlcN6P [4] [s⁻¹] | self-cleavage kobs at 640 uM GlcN6P [5] [s⁻¹] |
| --- | --- | --- | --- | --- | --- |
| G13A G51A G62C | < 1e-05 | – | – | – | – |
| C34G A53C U69A | < 1e-05 | < 1e-05 | – | – | – |
| A6U C34U C58U | < 1e-05 | – | – | – | – |
| A48C U49C C61G | < 1e-05 | < 1e-05 | < 1e-05 | < 1e-05 | – |
| G41U G62C C70U | < 1e-05 | < 1e-05 | – | – | < 1e-05 |
| G7U U69A | 3.92e-05 ± 1.7e-05 | – | 0.000853 ± 0.00032 | – | – |
| G9U G37A C67U C71G | < 1e-05 | – | – | – | – |
| C16A C71U | 5.08e-05 ± 8.3e-06 | 0.00133 ± 0.00014 | 0.000159 ± 3.6e-05 | 0.000355 ± 5.3e-05 | 0.000293 ± 3.5e-05 |
| U47A C68A | < 1e-05 | – | – | – | – |
| G62U G63U | < 1e-05 | < 1e-05 | < 1e-05 | < 1e-05 | – |
| G37U A52U U56C | < 1e-05 | – | – | < 1e-05 | < 1e-05 |
| G38A U56C | < 1e-05 | < 1e-05 | < 1e-05 | – | < 1e-05 |
| U31C G37C | < 1e-05 | – | < 1e-05 | – | – |
| G41A U45C C70U | 9.09e-05 ± 2e-05 | 0.00358 ± 0.00079 | – | 0.00174 ± 0.00052 | – |
| G44C C50A U55A C70U | < 1e-05 | – | – | – | – |
| A12G G13U U31C U49G | < 1e-05 | – | – | – | – |
| C16U C50G | 4.26e-05 ± 1.3e-05 | – | 3.28e-05 ± 1.4e-05 | – | 4.35e-05 ± 1.3e-05 |
| G38C A39U A42G U54A C67G C70U | < 1e-05 | – | – | – | – |
| U54A G62U | < 1e-05 | < 1e-05 | – | < 1e-05 | – |
| A12C A14G A15C | 0.000144 ± 2.4e-05 | – | – | 0.00354 ± 0.00082 | 0.00124 ± 0.0003 |
| G38C U45C U55C | < 1e-05 | – | – | < 1e-05 | – |
| A33C G44C U45C | < 1e-05 | < 1e-05 | – | – | < 1e-05 |
| G21U U31A | 0.000447 ± 9.2e-05 | 0.042 ± 0.018 | 0.00108 ± 0.0003 | 0.0102 ± 0.0025 | 0.00614 ± 0.0013 |
| C61A G62C | < 1e-05 | < 1e-05 | < 1e-05 | – | < 1e-05 |
| G7U C11G A12C A42U | < 1e-05 | – | – | < 1e-05 | – |
